# Source: the supplement of paper PMC7877785
# ± gives the uncertainty stated by the source.
# Assay: self-splicing fitness, log relative to wild type (ln ratio); higher = more splicing; Tetrahymena group I intron in knt gene, E. coli kanamycin selection, DiMSum; sequences stand for … in CUCUCU…GGAGGGAAAAGUUAUCAGGCAUGCACCUGGUAGCUAGUCUUUAAACCAAUAGAUUGCAUCGGUUUAAAAGGCAAGACCGUCAAAUUGCGGGAAAGGGGUCAACAGCCGUUCAGUACCAAGUCUCAGGGGAAACUUUGAGAUGGCCUUGCAAAGGGUAUGGUAAUAAGCUGACGGACAUGGUCCUAACCACGCAGCCAAGUCCUAAGUCAACAGAUCUUCUGUUGAUAUGGAUGCAGUUCACAGACUAAAUGUCGGUCGGGGAAGAUGUAUUCUUCUCAUAAGAUAUAGUCGGACCUCUCCUUAAUGGGAGCUAGCGGAUGAAGUGAUGCAACACUGGAGCCGCUGGGAACUAAUUUGUAUGCGAAAGUAUAUUGAUUAGUUUUGGAGUACUCGUGGUCG
# How it was run: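 Pooled colonies went to amplicon sequencing on an Illumina HiSeq 2500 after six replicate transformations. The plates were LB agar with 100 μg/mL carbenicillin, 50 μM IPTG and 0.2% rhamnose, with or without 25 μg/mL kanamycin, incubated overnight at 37°C or 30°C. The E. coli BL21(DE3) library had all eight P1ex-region intron nucleotides randomised, the intron placed in the knt kanamycin-resistance gene on pET-22b(+). DiMSum fitness is the error-weighted combination of replicate fold changes, kanamycin against none, normalised to wild type.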
Sequence,self-splicing fitness (ln) (30 °C),self-splicing fitness (ln) (37 °C)
CAUAAGCAAUAUUACGUCGG,-0.598 ± 0.061,-0.568 ± 0.087
CAUAAGCAAUAUUACGUGCC,-3.1 ± 0.21,-2.66 ± 0.38
CAUAAGCAAUAUUACGUGCU,-3.19 ± 0.3,-1.89 ± 0.27
CAUAAGCAAUAUUACGUUUC,-3.35 ± 0.21,-2.26 ± 0.2
CAUAAGCAAUAUUACGUUUG,-3.3 ± 0.17,-2.46 ± 0.18
CAUCAGCAAUAUUACGAAAA,–,-2.89 ± 0.28
CAUCAGCAAUAUUACGACCA,-1.38 ± 0.19,-1.1 ± 0.19
CAUCAGCAAUAUUACGACCG,-0.142 ± 0.086,0.366 ± 0.12
CAUCAGCAAUAUUACGACGG,-0.186 ± 0.085,-0.0315 ± 0.1
CAUCAGCAAUAUUACGAGCA,-2.05 ± 0.23,-0.921 ± 0.14
CAUCAGCAAUAUUACGCAAU,-4.01 ± 0.24,-3.15 ± 0.17
CAUCAGCAAUAUUACGCAUG,-2.03 ± 0.11,-2.23 ± 0.13
CAUCAGCAAUAUUACGCCUC,–,-1.57 ± 0.24
CAUCAGCAAUAUUACGCGGA,-3.61 ± 0.27,-2.6 ± 0.29
CAUCAGCAAUAUUACGCGUG,-3.13 ± 0.095,-2.16 ± 0.092
CAUCAGCAAUAUUACGGACC,-3.04 ± 0.24,-0.899 ± 0.22
CAUCAGCAAUAUUACGGCCA,-2.63 ± 0.28,-0.947 ± 0.27
CAUCAGCAAUAUUACGGGAA,-2.53 ± 0.21,-1.68 ± 0.17
CAUCAGCAAUAUUACGUAAG,-0.0494 ± 0.068,0.711 ± 0.092
CAUCAGCAAUAUUACGUCGG,-0.265 ± 0.055,-0.317 ± 0.076
CAUCAGCAAUAUUACGUGAG,-0.345 ± 0.055,-0.244 ± 0.073
CAUGAGCAAUAUUACGACGG,-0.356 ± 0.12,-0.199 ± 0.17
CAUGAGCAAUAUUACGAGAU,-4.03 ± 0.23,-1.82 ± 0.28
CAUGAGCAAUAUUACGAGCU,-2.78 ± 0.23,–
CAUGAGCAAUAUUACGAUAG,-1.55 ± 0.088,-0.709 ± 0.1

Sequence,self-splicing fitness (ln) (30 °C),self-splicing fitness (ln) (37 °C)
CAUGAGCAAUAUUACGAUCA,-2.99 ± 0.15,-2.24 ± 0.16
CAUGAGCAAUAUUACGCAAG,-3.15 ± 0.13,-1.69 ± 0.12
CAUGAGCAAUAUUACGCAGG,-3.17 ± 0.19,-1.51 ± 0.2
CAUGAGCAAUAUUACGCAUG,-3.01 ± 0.2,-1.18 ± 0.25
CAUGAGCAAUAUUACGCCCG,-1.56 ± 0.18,-0.89 ± 0.2
CAUGAGCAAUAUUACGCCUA,-2.28 ± 0.24,-1.75 ± 0.26
CAUGAGCAAUAUUACGCUGU,-3.14 ± 0.23,-1.14 ± 0.23
CAUGAGCAAUAUUACGGACG,-0.912 ± 0.087,-0.391 ± 0.11
CAUGAGCAAUAUUACGGCAA,-2.43 ± 0.17,-2.02 ± 0.28
CAUGAGCAAUAUUACGGCGA,-3.34 ± 0.31,-2.53 ± 0.25
CAUGAGCAAUAUUACGGGUG,-3.68 ± 0.19,-2.43 ± 0.13
CAUGAGCAAUAUUACGUAAC,-3.38 ± 0.35,-2.61 ± 0.31
CAUGAGCAAUAUUACGUAUC,-3.9 ± 0.32,-3.15 ± 0.25
CAUGAGCAAUAUUACGUCCA,-2.74 ± 0.33,-2.28 ± 0.34
CAUGAGCAAUAUUACGUUCU,-3.59 ± 0.27,-3.11 ± 0.26
CAUGAGCAAUAUUACGUUUC,-2.86 ± 0.34,–
CAUUAGCAAUAUUACGAAAG,-0.84 ± 0.12,-0.567 ± 0.13
CAUUAGCAAUAUUACGAACC,-3.51 ± 0.46,-1.98 ± 0.34
CAUUAGCAAUAUUACGAAUC,-4.46 ± 0.31,-2.49 ± 0.18
CAUUAGCAAUAUUACGACCG,0.0272 ± 0.082,0.169 ± 0.1
CAUUAGCAAUAUUACGACGU,-1.47 ± 0.12,-0.0623 ± 0.14
CAUUAGCAAUAUUACGAUGC,–,-3.61 ± 0.42
CAUUAGCAAUAUUACGCACU,-1.26 ± 0.1,-0.806 ± 0.13
CAUUAGCAAUAUUACGCCCU,-2.38 ± 0.22,-1.55 ± 0.24
